Measurements taken from the DeepSol protein solubility set.

Experiment: soluble on expression in E. coli; label from the status in PepcDB or PDB records

| Sequence | soluble on expression in E. coli |
| --- | --- |
| MKTASYAQSFSRAAKEYDAYAYLQQTVARELASWIEGMECESILDLGCGTGALWRALRFKPRFFTGVDLSMEMLDLHPQDPAIRLIQSDFNHPSLYEHSYDLIAASSSLQWSRDLAQSFDLIAKSAQNVAFAIFTSESLWEIHDYVDSHSPIPSKERIESLLKERFAGEFELKRYPLSFPSRVAMLSYLKGSGISGGRRLGFAQSKKLIQSAPFERLTFEVLFFVGKPLKADQK | not soluble |
| MKTAYIAKQRQISFVKSHFSRQLEERLGLIEVQAPILSRVGDGTQDNLSGAEKAVQVKVKALPDAQFEVVHSLAKWKRQTLGQHDFSAGEGLYTHMKALRPDEDRLSPLHSVYVDQWDWERVMGDGERQFSTLKSTVEAIWAGIKATEAAVSEEFGLAPFLPDQIHFVHSQELLSRYPDLDAKGRERAIAKDLGAVFLVGIGGKLSDGHRHDVRAPDYDDWSTPSELGHAGLNGDILVWNPVLEDAFELSSMGIRVDADTLKHQLALTGDEDRLELEWHQALLRGEMPQTIGGGIGQSRLTMLLLQLPHIGQVQAGVWPAAVRESVPSLL | soluble |
| MKTFFIVASLLAVGLVLAEDSEEKSEVKDVKPWKKLDFKKREPEFLKEMSQDAKTAYFGIKFNPELTKAEKTRMLKEWADQYDVEDDMQKFLDAKKADCDKKKQERKDNYERLGDLIEKADEILDDQENTWNGANEKLEALVKDENRDVMKAFQSFYPFVGRDSEGPRHGHGHGHGHRFHHGRRFGRNIGGGAAPRYNGGGIGSGISIGENPRHHNGGIGSGISMGERHRDGESYDAYGNSKHHHKKHHGF | not soluble |
| MKTFIWNSNYETGVAKVDDQHQCLVEIINEYSHLLANNTTTETDIELTLNKLIDYTKFHFKDEEQLMYSVGLDTRHITHHEKLHRDILDEISTLLSDQVTDKLSIARYILDLIIHWLVYHILGTDMNMAKLEHHHHHH | not soluble |
| MKTGKELKPGTVIRLENDPWLVQKAEFTKSGRNSAIMKTKLKNLLTGYKTEIVYSADDKLDDVILDRKEATLSFISGDTYTFMDTTDYTMYELNAEDIESVLPFVEEGMTDVCEAVFFDERLVSVELPTTIVRQVDYTEGSARGDTSGKVMKPAKLKNGTELSVADFIEIGDMIEIDTREGGSYKGRAKLEHHHHHH | not soluble |
| MKTHYRTIVLSDIHLGTSSSKAKEVSNFLKNHTCDTLLLNGDIIDGWQLQKYGKWKKSHTRFFRRVIKMTEQNKTKVYYLRGNHDDFLDTILPLSFGNIHIDREYIHQGATGKMYYVVHGDVFDTVTSQLKWIAKLGDVGYTFLLWLNKHYNNYRVKRGLPYYSLSQAVKQKVKTAVSYISDFEMQLADLARSRKCDGVICGHIHQPAIKEYNGIEYLNSGDWVETLSALVETIHGEWKLIYYNQAFDEDRDSTEDADDPLFVFENMARFSKDVTIYKPRYSAFNGMNPADNLATNNQ | not soluble |
| MKTLLTSATLLVTTLSTPLMAKEADIQSLVNAAQKEGQVYSVGMPGSWANWKDTWNDLNKLYGLKHQDTDMSSAQEIAKFAAEKNNATADIGDIGFAFARVAVKKGVTQAYKPTTWDSIPDWAKDKDGHWALAYTGTISFISNNKLVKNPPTSWDDLLEGNYKVSVGDVGVAAQANNAVLAAAFAKGGDESNLKPAIKFFAELAKQGRLSYTDPGLANLEKGEVEVALLWDFNALNYRDKLGRDRFSVNIPQDGSVISGYTTIINKFAKNPNSAKLAREYIFSDQGQINLAEGYARPIRSDVVLPQSIQDKLIPNDQYTNVQPVSDFKAWEKSARKLPRQWQENVLINQQ | not soluble |
| MKTLNLLAPVSQLLKPLRRQSSSRVNALLINVPRVQLSKGKNKYLLMMIHMHGLTRFGRTIVRGSASKDHEEIFEEIQKEMDKIGICAKCLGGGFISNKEDKKVMKIYGCCKTFGEAPHGRTKDILLSWTKFQHYNIILPKKNLNAYQLEHHHHHH | not soluble |
| MKTNSEELTVFVQVVESGSFSRAAEQLAMANSAVSRIVKRLEEKLGVNLLNRTTRQLSLTEEGAQYFRRAQRILQEMAAAETEMLAVHEIPQGVLSVDSAMPMVLHLLAPLAAKFNERYPHIRLSLVSSEGYINLIERKVDIALRAGELDDSGLRARHLFDSRFRVIASPEYLAKHGTPQSTEELAGHQCLGFTEPGSLNTWAVLDAQGNPYKISPHFTASSGEILRSLCLSGCGIVCLSDFLVDNDIAEGKLIPLLAEQTSDKTHPFNAVYYSDKAVNLRLRVFLDFLVEELGNNLCGKHHHHHH | soluble |
| MKTPAILLLLFLFMMSLAQSDEEQSGKEPPEKDDVLVILAEDNSTLLNNNQTMYDPSSEEKESDKPKFNLLETYLPLFIFVLDLPTEDRETLKAYVKDKTYEKLKYVIDSKVKMNRNEKNVLGRINESLVQSIDNLEHFDEITVDVVNGYHNASVYNAIRSVWLKQLRPFLPLIDQMAIQQKSSETEKMSIWARLWENLSVWMYGKKKLNECYAMEPKCVRHALELLNFEQRIDLDLAAYENKFDSVDGIIRERLGENRKSSELDEWLHRNRPPKALQAILDERSDIEEEALQRLRDNGVLSSLKHYYKAVIESRSHEEQEDIRHFFDIMNDTFARCFDPLRGQYHDF | not soluble |
| MKTPTRVSFEKKIHTPPSGDRDAERSPPKKFLRGLSGKVFRKTPEFKKQQMPTFGYIEESQFTPNLGLMMSKRGNIPKPLNLSKPISPPPSLKKTAGSVASGFSKTGQLSALQSPVNITSSNKYNIKATNLTTSLLRESISDSTTMCDTLSDINLTVMDEDYRIDGDSYYEEDSPTFMISLERNIKKCNSQFSPKRYIGEKCLICEESISSTFTGEKVVESTCSHTSHYNCYLMLFETLYFQGKFPECKICGEVSKPKDKDIVPEMVSKLLTGAGAHDDGPSSNMQQQWIDLKTARSFTGEFPQFTPQEQLIRTADISCDGFRTPRLSNSNQFEAVSYLDSPFLNSPFVNKMATTDPFDLSDDEKLDCDDEIDESAAEVWFSKTGGEHVMVSVKFQEMRTSDDLGVLQDVNHVDHEELEEREKEWKKKIDQYIETNVDKDSEFGSLILFDKLMYSDDGEQWVDNNLVILFSKFLVLFDFEEMKILGKIPRDQFYQVIKFNEDVLLCSLKSTNIPEIYLRFNENCEKWLLPKWKYCLENSSLETLPLSEIVSTVKELSHVNIIGALGAPPDVISAQSHDSRLPWKRLHSDTPLKLIVCLNLSHADGELYRKRVLKSVHQILDGLNTDDLLGIVVVGRDGSGVVGPFGTFIGMINKNWDGWTTFLDNLEVVNPNVFRDEKQQYKVTLQTCERLASTSAYVDTDDHIATGYAKQILVLNGSDVVDIEHDQKLKKAFDQLSYHWRYEISQRRMTPLNASIKQFLEELHTKRYLDVTLRLPQATFEQVYLGDMAAGEQKTRLIMDEHPHSSLIEIEYFDLVKQQRIHQTLEVPNL | not soluble |
| MKTSSYLLKAGVDYPTNWDEFVDWFHDEQSCTSYLYALRWPNGFICPSCSSHQSPYQLSNGKLKCHACRFQCSVTSSTLFDKTRTPMKSWFAAVWFITNQKNGVSALGVQRLLGLGSYQTAWSLMHKLRYAMVDPERDKLSGIVEVDETLIGGVIPKSSIKNQQGKRKAIVLVAVELLSPSGFGRIRLRQVESATKEHIHQFIQDVIEPGSTICSDGSQAYKQIDKKGYKHNRMVHLGSSVPAHETMAGVHRVSSLCKRWLLGTYQGAVKAKQLDYYLDEFTFRFNRRKSDSRGLLFYRLLEQAVRLEHHHHHH | soluble |
| MKTTDLFSTLENNILRNSLDSTTKDKLLSNLSLLRKASLNILITGSTGSGKSSTINALFDMTVAQVGIDSDPHTESVQCYHLNNLVLWDTPGLGDGIDEDKKHVQAIKQLLNKRDDHGQLAIDLVLVILDGGSRDLGTPLRLINDIVIPQLGDDAEKRLIVAVNQADVALKGPESWNYSDNLPTDKAKAFLEKQQNSIARRIHKATQINVKTLYFVAGYSDGVNRQRPYNLSKLLYTIVEILPNNKRVMLANRTISNDADNWKDNDASDYNKKTTLSLWEAIVETTLQGASIGSDIGSIFGKPGEILGKVVGSVAGLFFGGLRYTFGFLEHHHHHH | soluble |
| MKTVTEFQNKNILVLGIAKSGYAAATLLQKLGANVIVNDGKPLAENVLAAELQAKGMDVVCGGHPLELLERNISLVVKNPGIPYSNPILVAAKEKQIPIVTEVELAYRISEAPFVGITGSNGKTTTTMLTFEMLKEGQKHPVIAGNIGTVACEVAQDAKENEVVVTELSSFQLMGVELFQPKIAAFLNLFEAHLDYHGTKKEYGLAKANIFKNQTENDYSVINADDADVMALSAYSKGQKVLFSTTKEIEDGACIKDNALYFKAEKVVEVDDIVLPGQHNLENILAAMSIAKLLGVSNEAITAVLKRFTGVKHRLEYVTTINNRKFYNDSKATNMLATEKALSAFTQPTVLLAGGLDRGNEFDDLIPYFKNVKAIVTFGQTAPKLVRAAEKAGLDTIESVDTLDEAVVKAYAHSTDGDVILLSPACASWDQFKTFEERGDIFIQAVHKLI | not soluble |
| MKVAEIIVVEGKDDTRRIQEVVAADTIETIGSAINDEILTQIEHAQETRGVIIFTDPDYSGEKIRKTIMEVVPDAKHAFLSRKVAVPKKNGGSLGVEHASDEAIIEALKKVVTPVQADEDYQEIPRQTLVEYGLIAGANAKKYRELLGDDLRIGYTNSKQLVKRLSMFRITEAELKESMTRILKELANEE | not soluble |
| MKVEIGKIVNTHGIKGEIKVKSNSDFTETRFQPGELVIIERKNKEPLEFTIASYRMHKGLHMLTFEGINNINDIEYLKGETIMQERDHEEIELGEHEFYYSDIIGCTVFDDDDTPIGRVTEIFETGANDVWVVKGDKEYLIPYIADVVKDIDVEGRRIQITPMEGLLDLEHHHHHH | soluble |
| MKVEKFKVLLYLKKSGLDKNGKAPIMGRITLNRTMAQFGCKLSCTPKLWNPRESRLDGKSKEAVEVNAKIDKLLLAINSAYESLVERKTDFDAKAIKDLFQCSADTQMTLLKQLDAIIADIESRIGIDYKKGTLPNYQYTRLTLGLFVKKRYGTDDVAFGELDEQFIREYMDFCLDERGLALDTVRHYLAILKKTCRIAFKAGHSERYHFMHFKLPQKKENPPKALTREDFLKIRDLEIPERRKSLALTRDLFLFACYTGTAYADTVSITEENLFRDEEGSLWLKYHRKKNKMLARVKLLPEALAMLEKYKDPTRPTLLPPQEFRVLRGNM | not soluble |
| MKVLDLIDKYYPQDNELKHILNVHSRSVADKALWIAGKHPELNLDTVFLEEAAMLHDIGIFLTHAPGIQCFGTEPYICHGYLGAGLVRKEGFPRHALVCERHTGAGLSLKDIMDQKLPVPHREMLPVSMEEQVICFADKFFSKTHLDREKTVEGARKSIAKYGDEGLQRFNNWCKLFL | not soluble |
| MKVLILGGGYTGQRLAQLLAAQSIPVLATTRSGQWPLDEPCVTFDAGSTPLLLPDPAALAGVTHVLSTIPPLGDGGDPVLSTLLPTLQYLSLQWCGYLSTTGVYGDTQGAWVDEDSPLQSTNRRSQQRIAIEAQWLASGLPAHIFRLPGIYGPGRSSFDRLRRGDNQRLLKPGHVFCRIHVDDIAAALWASLQQPNPGRIYNVSDDFPCEPALLIEAAAQLMGVELPPPLPVDAVELSPMAASFWSECRRVRNDRLKQELGVQLRYPSYREGLAAIWAAELEHHHHHH | not soluble |
| MKVLLINGSPHAKGCTYTALSEVAKALEEENIETEIFQIGTKPVRGCIGCGTCSKTGSGKCVFDDDTLNAGLEKAKTADGFIFGSPVHYAAASGALTSFLDRFFYAGKDFAYKPGAAIVSCRRGGAAAAFDQLNKYFTIANMPIVSSQYWNMVHGNTPEEVKQDLEGMQTMRTLGKNMAWLLKSIQAGKEAGVKLPEKEQTIRTNFIRLEHHHHHH | soluble |
| MKVNDRVTVKTDGGPRRPGVVLAVEEFSEGTMYLVSLEDYPLGIWFFNEAGHQDGIFVEKAE | soluble |
